Substrate in data set [1]: CC(=O)C(=O)O
Description: initial rates, plate reader, Michaelis-Menten fit. In kind it is biochemical, Escherichia coli. Conditions: free enzyme, 30 °C, cosubstrate saturating, varied substrate inferred from pathway. An excerpt:
initial rates, plate reader, Michaelis-Menten fit on Lactate dehydrogenase (LDH)

Substrate in data set [2]: O=C(O)[C@H](O)COP(=O)(O)O
The data set can be described thus: initial rates, plate reader, Michaelis-Menten fit. The format is biochemical, Escherichia coli. Conditions: free enzyme, 30 °C, forward direction. From the text: initial rates, plate reader, Michaelis-Menten fit on Phosphoglycerate mutase (PGM)

Substrate in data set [3]: O=C(O)[C@@H](CO)OP(=O)(O)O
Description: initial rates, plate reader, Michaelis-Menten fit. In kind it is biochemical, Escherichia coli. As to conditions: free enzyme, 30 °C, substrate inferred from pathway. From the text: initial rates, plate reader, Michaelis-Menten fit on Enolase (Eno)

Substrate in the data set “purified protein”: O=C[C@H](O)COP(=O)(O)O
The data set can be described thus: purified protein. Conditions: free enzyme, 30 °C, cosubstrates saturating, varied substrate inferred from pathway.

Substrate in data set [4]: O=C(CO)COP(=O)(O)O
The data set can be described thus: initial rates, plate reader, Michaelis-Menten fit. The format is biochemical, Escherichia coli. As to conditions: free enzyme, 30 °C, forward direction inferred (only PGI and PGK stated as reverse), substrate inferred from pathway. From the text:
initial rates, plate reader, Michaelis-Menten fit on Triose phosphate isomerase (TPI)

B1: Lactate dehydrogenase (LDH) (Escherichia coli K-12) (protein)
chain: MKLAVYSTKQYDKKYLQQVNESFGFELEFFDFLLTEKTAKTANGCEAVCIFVNDDGSRPVLEELKKHGVKYIALRCAGFNNVDLDAAKELGLKVVRVPAYDPEAVAEHAIGMMMTLNRRIHRAYQRTRDANFSLEGLTGFTMYGKTAGVIGTGKIGVAMLRILKGFGMRLLAFDPYPSAAALELGVEYVDLPTLFSESDVISLHCPLTPENYHLLNEAAFEQMKNGVMIVNTSRGALIDSQAAIEALKNQKIGSLGMDVYENERDLFFEDKSNDVIQDDVFRRLSACHNVLFTGHQAFLTAEALTSISQTTLQNLSNLEKGETCPNELV
notes: full length, terminal His6 kept; E. coli BL21(DE3); EC 1.1.1.28
Usually Km stands for the concentration of substrate that gives half-maximal velocity. The term Vmax denotes the top rate of the reaction or transport when substrate is in excess. The term kcat denotes the maximal rate divided by the concentration of active sites. The term kcat/Km denotes the turnover number divided by the Michaelis constant. For B1, in data set [1], the Km stood at 31.47 ± 6.901 mM, the maximum rate (Vmax) came out at 14.4 µM/min, the kcat came out at 95.5 ± 10.4 s⁻¹ and the kcat/Km turned out to be 3040 ± 740 M⁻¹ s⁻¹.

B2: Phosphoglycerate mutase (PGM) (Escherichia coli K-12) (protein)
chain: MLVSKKPMVLVILDGYGYREEQQDNAIFSAKTPVMDALWANRPHTLIDASGLEVGLPDRQMGNSEVGHVNLGAGRIVYQDLTRLDVEIKDRAFFANPVLTGAVDKAKNAGKAVHIMGLLSAGGVHSHEDHIMAMVELAAERGAEKIYLHAFLDGRDTPPRSAESSLKKFEEKFAALGKGRVASIIGRYYAMDRDNRWDRVEKAYDLLTLAQGEFQADTAVAGLQAAYARDENDEFVKATVIRAEGQPDAAMEDGDALIFMNFRADRAREITRAFVNADFDGFARKKVVNVDFVMLTEYAADIKTAVAYPPASLVNTFGEWMAKNDKTQLRISETEKYAHVTFFFNGGVEESFKGEDRILINSPKVATYDLQPEMSSAELTEKLVAAIKSGKYDTIICNYPNGDMVGHTGVMEAAVKAVEALDHCVEEVAKAVESVGGQLLITADHGNAEQMRDPATGQAHTAHTNLPVPLIYVGDKNVKAVEGGKLSDIAPTMLSLMGMEIPQEMTGKPLFIVE
notes: full length, terminal His6 kept; E. coli BL21(DE3)
For the protein B2, in data set [2], the Km amounted to 3.584 ± 1.138 mM.

B3: Enolase (Eno) (Escherichia coli K-12) (protein)
chain: SKIVKIIGREIIDSRGNPTVEAEVHLEGGFVGMAAAPSGASTGSREALELRDGDKSRFLGKGVTKAVAAVNGPIAQALIGKDAKDQAGIDKIMIDLDGTENKSKFGANAILAVSLANAKAAAAAKGMPLYEHIAELNGTPGKYSMPVPMMNIINGGEHADNNVDIQEFMIQPVGAKTVKEAIRMGSEVFHHLAKVLKAKGMNTAVGDEGGYAPNLGSNAEALAVIAEAVKAAGYELGKDITLAMDCAASEFYKDGKYVLAGEGNKAFTSEEFTHFLEELTKQYPIVSIEDGLDESDWDGFAYQTKVLGDKIQLVGDDLFVTNTKILKEGIEKGIANSILIKFNQIGSLTETLAAIKMAKDAGYTAVISHRSGETEDATIADLAVGTAAGQIKTGSMSRSDRVAKYNQLIRIEEALGEKAPYNGRKEIKGQA
notes: as for B2
Consider B3, for which, in data set [3], the Michaelis-Menten constant (Km) stood at 2.04 ± 0.072 mM, the Vmax amounted to 4.14 µM/min, the kcat was determined as 22.9 ± 3 s⁻¹ and the specificity constant (kcat/Km) stood at 11200 ± 4300 M⁻¹ s⁻¹.

B4: Glyceraldehyde-3-phosphate dehydrogenase (GPD) (Escherichia coli K-12) (protein)
chain: TIKVGINGFGRIGRIVFRAAQKRSDIEIVAINDLLDADYMAYMLKYDSTHGRFDGTVEVKDGHLIVNGKKIRVTAERDPANLKWDEVGVDVVAEATGLFLTDETARKHITAGAKKVVMTGPSKDNTPMFVKGANFDKYAGQDIVSNASCTTNCLAPLAKVINDNFGIIEGLMTTVHATTATQKTVDGPSHKDWRGGRGASQNIIPSSTGAAKAVGKVLPELNGKLTGMAFRVPTPNVSVVDLTVRLEKAATYEQIKAAVKAAAEGEMKGVLGYTEDDVVSTDFNGEVCTSVFDAKAGIALNDNFVKLVSWYDNETGYSNKVLDLIAHISK
Consider B4, for which, in the data set “purified protein”, the Michaelis constant (Km) was 3.494 ± 1.039 mM, the Vmax amounted to 0.6 µM/min, the catalytic constant (kcat) amounted to 3.2 s⁻¹ and the catalytic efficiency (kcat/Km) was 920 M⁻¹ s⁻¹.

B5: Triose phosphate isomerase (TPI) (Escherichia coli K-12) (protein)
chain: MRHPLVMGNWKLNGSRHMVHELVSNLRKELAGVAGCAVAIAPPEMYIDMAKREAEGSHIMLGAQNVDLNLSGAFTGETSAAMLKDIGAQYIIIGHSERRTYHKESDELIAKKFAVLKEQGLTPVLCIGETEAENEAGKTEEVCARQIDAVLKTQGAAAFEGAVIAYEPVWAIGTGKSATPAQAQAVHKFIRDHIAKVDANIAEQVIIQYGGSVNASNAAELFAQPDIDGALVGGASLKADAFAVIVKAAEAAKQA
notes: as for B2
On to B5, for which, in data set [4], the Michaelis-Menten constant (Km) was 1.717 ± 0.236 mM, the maximal velocity (Vmax) is 34.9 µM/min, the kcat came out at 194 ± 12 s⁻¹ and the kcat/Km was 113000 ± 17000 M⁻¹ s⁻¹.

Values taken from PMC10060375, “Self assembling nanoparticle enzyme clusters provide access to substrate channeling in multienzymatic cascades” (Nature Communications, 2023).
